Laboratory results: patent US20220363757A1 (SYMPHOGEN A S, published 2022)

T1: human LAG-3 domain 1-2 Fc fusion, point mutation #44 R97A (human, UniProt P18627 23-266)
T1 construct: not shown: human IgG1 Fc, AA P101-K330
T1 sequence: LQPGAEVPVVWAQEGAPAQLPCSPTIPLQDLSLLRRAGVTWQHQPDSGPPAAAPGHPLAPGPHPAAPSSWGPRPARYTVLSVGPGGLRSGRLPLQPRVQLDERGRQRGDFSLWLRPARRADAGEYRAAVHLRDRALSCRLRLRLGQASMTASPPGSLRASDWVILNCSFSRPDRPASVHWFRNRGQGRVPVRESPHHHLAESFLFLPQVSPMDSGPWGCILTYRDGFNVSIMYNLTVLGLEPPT

T2: human LAG-3 domain 1-2 Fc fusion, point mutation #54 R110A (human, UniProt P18627 23-266)
T2 construct: not shown: human IgG1 Fc, AA P101-K330
T2 sequence: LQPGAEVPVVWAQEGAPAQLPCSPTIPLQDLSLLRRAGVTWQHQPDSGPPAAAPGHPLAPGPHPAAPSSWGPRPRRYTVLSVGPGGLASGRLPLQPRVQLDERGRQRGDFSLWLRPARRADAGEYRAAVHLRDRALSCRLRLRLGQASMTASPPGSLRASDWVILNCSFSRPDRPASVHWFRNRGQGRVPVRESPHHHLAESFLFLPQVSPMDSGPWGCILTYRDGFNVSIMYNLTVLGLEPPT

T3: human LAG-3 domain 1-2 Fc fusion, point mutation #56 G112A (human, UniProt P18627 23-266)
T3 construct: not shown: human IgG1 Fc, AA P101-K330
T3 sequence: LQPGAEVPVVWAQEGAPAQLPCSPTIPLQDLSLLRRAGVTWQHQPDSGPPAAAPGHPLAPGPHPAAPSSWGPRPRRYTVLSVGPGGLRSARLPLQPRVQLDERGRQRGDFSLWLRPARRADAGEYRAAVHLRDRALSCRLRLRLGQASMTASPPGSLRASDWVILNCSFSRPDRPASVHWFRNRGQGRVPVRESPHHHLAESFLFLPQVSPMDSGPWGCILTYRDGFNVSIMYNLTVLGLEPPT

T4: human LAG-3 domain 1-2 Fc fusion, point mutation #58 P115A (human, UniProt P18627 23-266)
T4 construct: not shown: human IgG1 Fc, AA P101-K330
T4 sequence: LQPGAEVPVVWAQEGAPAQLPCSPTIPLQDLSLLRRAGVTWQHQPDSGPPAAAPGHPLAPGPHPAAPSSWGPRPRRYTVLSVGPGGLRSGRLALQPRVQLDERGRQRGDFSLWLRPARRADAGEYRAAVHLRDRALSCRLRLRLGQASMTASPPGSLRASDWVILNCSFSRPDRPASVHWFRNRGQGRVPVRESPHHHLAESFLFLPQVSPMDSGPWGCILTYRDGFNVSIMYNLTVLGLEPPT

T5: human LAG-3 domain 1-2 Fc fusion, point mutation #65 R125A (human, UniProt P18627 23-266)
T5 construct: not shown: human IgG1 Fc, AA P101-K330
T5 sequence: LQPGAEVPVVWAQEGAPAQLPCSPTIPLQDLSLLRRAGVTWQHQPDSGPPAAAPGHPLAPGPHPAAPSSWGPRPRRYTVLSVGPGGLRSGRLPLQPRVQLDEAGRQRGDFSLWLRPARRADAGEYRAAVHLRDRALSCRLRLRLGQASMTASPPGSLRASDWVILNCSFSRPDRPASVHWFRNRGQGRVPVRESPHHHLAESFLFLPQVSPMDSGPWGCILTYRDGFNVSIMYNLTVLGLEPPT

T6: human LAG-3 domain 1-2 Fc fusion, point mutation #68 Q128A (human, UniProt P18627 23-266)
T6 construct: not shown: human IgG1 Fc, AA P101-K330
T6 sequence: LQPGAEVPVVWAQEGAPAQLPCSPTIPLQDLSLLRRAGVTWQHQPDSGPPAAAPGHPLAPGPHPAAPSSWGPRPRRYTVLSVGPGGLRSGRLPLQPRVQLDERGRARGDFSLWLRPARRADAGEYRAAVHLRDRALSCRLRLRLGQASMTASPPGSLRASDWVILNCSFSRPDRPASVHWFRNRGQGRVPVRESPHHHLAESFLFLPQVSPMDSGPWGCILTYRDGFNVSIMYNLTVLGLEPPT

T7: human LAG-3 domain 1-2 Fc fusion, point mutation #18 P67A (human, UniProt P18627 23-266)
T7 construct: not shown: human IgG1 Fc, AA P101-K330
T7 sequence: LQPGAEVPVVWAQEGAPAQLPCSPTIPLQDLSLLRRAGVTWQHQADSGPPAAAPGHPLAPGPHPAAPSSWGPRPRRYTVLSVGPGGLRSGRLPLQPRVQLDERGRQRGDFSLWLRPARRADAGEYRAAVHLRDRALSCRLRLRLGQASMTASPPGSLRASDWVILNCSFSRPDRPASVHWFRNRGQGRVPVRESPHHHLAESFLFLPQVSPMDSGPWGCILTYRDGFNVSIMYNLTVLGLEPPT

T8: human LAG-3 domain 1-2 Fc fusion, point mutation #27 L80A (human, UniProt P18627 23-266)
T8 construct: not shown: human IgG1 Fc, AA P101-K330
T8 sequence: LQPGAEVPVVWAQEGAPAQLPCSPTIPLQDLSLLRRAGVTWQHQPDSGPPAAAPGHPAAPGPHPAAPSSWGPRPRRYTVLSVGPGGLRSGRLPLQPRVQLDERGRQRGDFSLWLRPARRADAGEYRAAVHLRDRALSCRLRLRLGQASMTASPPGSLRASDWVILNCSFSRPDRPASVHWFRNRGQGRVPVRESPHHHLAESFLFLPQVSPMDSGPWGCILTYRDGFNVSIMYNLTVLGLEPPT

T9: human LAG-3 domain 1-2 Fc fusion, point mutation #32 H85A (human, UniProt P18627 23-266)
T9 construct: not shown: human IgG1 Fc, AA P101-K330
T9 sequence: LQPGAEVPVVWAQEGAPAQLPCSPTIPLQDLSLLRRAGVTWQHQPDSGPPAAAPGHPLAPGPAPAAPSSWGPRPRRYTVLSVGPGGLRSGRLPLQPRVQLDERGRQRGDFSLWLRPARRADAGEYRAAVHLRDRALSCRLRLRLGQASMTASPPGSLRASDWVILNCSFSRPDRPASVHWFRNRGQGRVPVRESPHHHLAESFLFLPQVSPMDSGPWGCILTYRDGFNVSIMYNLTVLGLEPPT


What was measured:
Experiment in all cases: SPR, Fab over captured mutant LAG-3-Fc;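 also: fc fusion variants captured on anti-human IgG Fc sensor, Fab injected with association then dissociation phases, KD obtained from Langmuir one-to-one fit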
[1] = biological target: T1, human LAG-3 domain 1-2 Fc fusion, point …
Experimental: (§1) The LAG-3 fusion proteins were immobilized onto a G-a-hu-IgG Fc SensEye® (Ssens BV, The Netherlands) for 15 minutes using a Continuous Flow Microspotter (CFM, Wasatch Microfluidics, Salt Lake City, US). After spotting, the SensEye® was positioned in an IBIS MX96 biosensor and captured proteins were evaluated for binding affinity. […] Fab association was performed for 15 minutes and antigen dissociation was performed for 15 minutes. The recorded binding responses were fitted to a simple Langmuir 1:1 binding model with Scrubber 2 software for calculation of the on-rate (kon or ka), off-rate (koff or kd) and affinity (KD) constants.

[2] = biological target: T2, human LAG-3 domain 1-2 Fc fusion, point …
Experimental: as §1

[3] = biological target: T3, human LAG-3 domain 1-2 Fc fusion, point …
Experimental: as §1

[4] = biological target: T4, human LAG-3 domain 1-2 Fc fusion, point …
Experimental: as §1

[5] = biological target: T5, human LAG-3 domain 1-2 Fc fusion, point …
Experimental: as §1

[6] = biological target: T6, human LAG-3 domain 1-2 Fc fusion, point …
Experimental: as §1

[7] = biological target: T7, human LAG-3 domain 1-2 Fc fusion, point …
Experimental: as §1

[8] = biological target: T8, human LAG-3 domain 1-2 Fc fusion, point …
Experimental: as §1

[9] = biological target: T9, human LAG-3 domain 1-2 Fc fusion, point …
Experimental: as §1

| KD mutant/KD wild type [1] | binding result [2] | KD mutant/KD wild type [3] | KD mutant/KD wild type [4] | KD mutant/KD wild type [5] | KD mutant/KD wild type [6] | KD mutant/KD wild type [7] | KD mutant/KD wild type [8] | KD mutant/KD wild type [9] | KD mutant/KD wild type [2] | binding result [7] | Binder |
| --- | --- | --- | --- | --- | --- | --- | --- | --- | --- | --- | --- |
| 0.7 fold | no binding (tested: 300 nM) | 3.1 fold | 1.3 fold | 1.1 fold | 1 fold | 0.6 fold | 0.8 fold | 0.9 fold | – | – | Fab fragment of antibody 15011 (Fab, V domains shown, not shown: a dimerising Fc or GST, monomeric Fab made by GingisKHAN digestion of the IgG1) VH: EVQLLESGGGLVQPGGSLRLSCAASGFDFRSYAMMWVRQAPGKGLEWVGGINGEVGGSNTYYAPAVKGRATISRDNSKNTLYLQMNSLRAEDTAVYYCVKGAGACGICNDDIDAWGQGTLVTVSS VL: SYELTQDPAVSVALGQTVRITCSGAGSYAGSYYYGWHQQKPGQAPVTVIYDNDKRPSNIPDRFSGSSSGNTASLTITGAQAEDEADYYCGSTNDNDDGGLFGSGTKVTVLG |
| 0.9 fold | – | 1 fold | 1 fold | 0.9 fold | 0.7 fold | 3.8 fold | 0.6 fold | 7.2 fold | 0.9 fold | – | Fab fragment of antibody 15532 (Fab, V domains shown, not shown: a dimerising Fc or GST, monomeric Fab made by GingisKHAN digestion of the IgG1) VH: QVQLQQWGAGLLRPSETLSLTCAVYGESFSGYYWNWIRQPPGKGLEWIGEINHSGSTNYNPSLKSRVTISVDTSKTQFSLKLSSVTAADTAVYYCARGWDLLDWNDYWNEYWGQGTLVTVSS VL: EIVLTQSPATLSLSPGERATLSCRASQSVSSYLAWYQQKPGQAPRLLIYDASNRATGIPARFSGSGSGTDFTLTISSLEPEDFAVYYCQQRSNWPLTFGGGTKVEIKR |
| 1.3 fold | – | 0.5 fold | 1.1 fold | 1.1 fold | 0.8 fold | – | 0.5 fold | 0.8 fold | 0.9 fold | no binding (tested: 300 nM) | Fab fragment of antibody 15431 (Fab, V domains shown, not shown: a dimerising Fc or GST, monomeric Fab made by GingisKHAN digestion of the IgG1) VH: QVQLQQSGPGLVKPSQTLSLTCAISGDSVSSNSAAWNWIRQSPSRGLEWLGRTYYRSKWYNDYAVSVKSRITINPDTSKNQFSLQLNSVTPEDTAVYYCARDDDWNDFDYWGQGTLVTVSS VL: EIVLTQSPATLSLSPGERATLSCRASQSVSSYLAWYQQKPGQAPRLLIYDASNRATGIPARFSGSGSGTDFTLTISSLEPEDFAVYYCQQRSNWPLTFGGGTKVEIKR |
| 0.6 fold | – | 0.5 fold | 1.4 fold | 1.1 fold | 0.9 fold | – | 0.6 fold | 0.7 fold | 0.6 fold | no binding (tested: 300 nM) | Fab fragment of antibody 15572 (Fab, V domains shown, not shown: a dimerising Fc or GST, monomeric Fab made by GingisKHAN digestion of the IgG1) VH: QLQLQESGPGLVKPSETLSLTCTVSGDSISSSSYYWGWIRQPPGKGLEWIGSIFYSGNTYYNPSLKSRVTISVDTSKNQFSLKLSSVTAADTAVYYCAREDDFLTDYYGAFDIWGQGTMVTVSS VL: not shown |
